This passage reports Kd results from article PMC10786891, “Massively parallel profiling of RNA-targeting CRISPR-Cas13d”.

The labels stand for the following.
T1: EsCas13d, nuclease-dead (Eubacterium siraeum, UniProt B0MS50, R295A;H300A;R849A;H854A)
T1 sequence: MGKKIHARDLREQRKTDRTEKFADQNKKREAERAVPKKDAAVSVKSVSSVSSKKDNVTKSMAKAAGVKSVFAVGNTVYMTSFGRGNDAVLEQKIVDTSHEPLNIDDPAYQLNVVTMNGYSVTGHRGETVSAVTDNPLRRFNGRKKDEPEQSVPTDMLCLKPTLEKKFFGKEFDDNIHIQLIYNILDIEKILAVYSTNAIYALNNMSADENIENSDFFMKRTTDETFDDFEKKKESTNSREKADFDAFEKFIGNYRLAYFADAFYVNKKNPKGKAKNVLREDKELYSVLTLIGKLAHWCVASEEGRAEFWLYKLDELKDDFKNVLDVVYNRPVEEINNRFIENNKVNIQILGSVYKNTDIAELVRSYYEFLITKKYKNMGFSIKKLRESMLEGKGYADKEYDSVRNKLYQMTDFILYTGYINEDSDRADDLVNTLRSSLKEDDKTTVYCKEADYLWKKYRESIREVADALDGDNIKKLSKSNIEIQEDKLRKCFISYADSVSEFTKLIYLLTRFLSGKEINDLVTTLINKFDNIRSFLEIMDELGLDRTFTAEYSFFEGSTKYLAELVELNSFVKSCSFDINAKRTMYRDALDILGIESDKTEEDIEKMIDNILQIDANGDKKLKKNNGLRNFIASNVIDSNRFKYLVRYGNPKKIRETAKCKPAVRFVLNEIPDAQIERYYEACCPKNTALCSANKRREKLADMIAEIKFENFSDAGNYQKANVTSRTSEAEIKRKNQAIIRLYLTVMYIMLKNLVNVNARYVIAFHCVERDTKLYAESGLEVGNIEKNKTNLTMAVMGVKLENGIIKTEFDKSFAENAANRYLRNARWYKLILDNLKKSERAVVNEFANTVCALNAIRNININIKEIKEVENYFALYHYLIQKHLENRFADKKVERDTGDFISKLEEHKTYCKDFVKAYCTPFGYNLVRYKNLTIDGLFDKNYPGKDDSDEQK

B1: target 1 insC 3' of 12,insA 3' of 10 (mixed)
RNA 1: CACCCGUGCAAAAAUGCAGGGGUCUAAAACUGAGCGGAUAACCUCUCUAUGG
RNA 2: GGGAAUGGAUCCACAUCUACGAAUUCGUACCAUAGAGAGGCUUAAUCCGCUCACCGAGAUCGGAAGAGCACACGU
B2: target 1 insG 3' of 22,insU 3' of 22 (mixed)
RNA 1: B1 RNA 1
RNA 2: B1 RNA 2 with C31G, A32U, U33C, G35U, G40A, C41G, U42G, A44U
B3: target 1 insG 3' of 19,insC 3' of 19 (mixed)
RNA 1: B1 RNA 1
RNA 2: B1 RNA 2 with A34G, G35C, G40A, C41G, U42G, A44U
B4: target 2 MT 5'PFS UUA 3'PFS ACA (mixed)
RNA 1: CACCCGUGCAAAAUUGCAGGGGUCUAAAACCUUCUCCAAAUUGUUUCAUCCU
RNA 2: GGGAAUGGAUCCACAUCUACGAAUUCUUAAGGAUGAAACAAUUUGGAGAAGACAAGAUCGGAAGAGCACACGU
B5: target 2 MT 5'PFS GCA 3'PFS CUC (mixed)
RNA 1: B4 RNA 1
RNA 2: B4 RNA 2 with U27G, U28C, A52C, C53U, A54C
B6: target 2 MT 5'PFS GGG 3'PFS AGG (mixed)
RNA 1: B4 RNA 1
RNA 2: B4 RNA 2 with U27G, U28G, A29G, C53G, A54G
B7: target 2 MT 5'PFS ACG 3'PFS AUU (mixed)
RNA 1: B4 RNA 1
RNA 2: B4 RNA 2 with U27A, U28C, A29G, C53U, A54U
B8: target 2 MT 5'PFS GUA 3'PFS CAA (mixed)
RNA 1: B4 RNA 1
RNA 2: B4 RNA 2 with U27G, A52C, C53A
B9: target 2 MT 5'PFS GGG 3'PFS CGA (mixed)
RNA 1: B4 RNA 1
RNA 2: B4 RNA 2 with U27G, U28G, A29G, A52C, C53G
B10: target 2 MT 5'PFS GGG 3'PFS CGG (mixed)
RNA 1: B4 RNA 1
RNA 2: B4 RNA 2 with U27G, U28G, A29G, A52C, C53G, A54G
B11: target 2 MT 5'PFS GUG 3'PFS AGU (mixed)
RNA 1: B4 RNA 1
RNA 2: B4 RNA 2 with U27G, A29G, C53G, A54U
B12: target 2 MT 5'PFS GAG 3'PFS CAC (mixed)
RNA 1: B4 RNA 1
RNA 2: B4 RNA 2 with U27G, U28A, A29G, A52C, C53A, A54C
B13: target 2 MT 5'PFS GCA 3'PFS CUG (mixed)
RNA 1: B4 RNA 1
RNA 2: B4 RNA 2 with U27G, U28C, A52C, C53U, A54G
B14: target 2 MT 5'PFS GUC 3'PFS CUC (mixed)
RNA 1: B4 RNA 1
RNA 2: B4 RNA 2 with U27G, A29C, A52C, C53U, A54C
B15: target 2 MT 5'PFS GUG 3'PFS AGA (mixed)
RNA 1: B4 RNA 1
RNA 2: B4 RNA 2 with U27G, A29G, C53G
B16: target 2 MT 5'PFS CAC 3'PFS UUC (mixed)
RNA 1: B4 RNA 1
RNA 2: B4 RNA 2 with U27C, U28A, A29C, A52U, C53U, A54C
B17: target 2 MT 5'PFS GAG 3'PFS CAA (mixed)
RNA 1: B4 RNA 1
RNA 2: B4 RNA 2 with U27G, U28A, A29G, A52C, C53A
B18: target 2 MT 5'PFS GUG 3'PFS AGG (mixed)
RNA 1: B4 RNA 1
RNA 2: B4 RNA 2 with U27G, A29G, C53G, A54G
B19: target 2 MT 5'PFS GAU 3'PFS AUU (mixed)
RNA 1: B4 RNA 1
RNA 2: B4 RNA 2 with U27G, U28A, A29U, C53U, A54U
B20: target 2 MT 5'PFS CAC 3'PFS UUG (mixed)
RNA 1: B4 RNA 1
RNA 2: B4 RNA 2 with U27C, U28A, A29C, A52U, C53U, A54G
B21: target 2 MT 5'PFS GAG 3'PFS CAU (mixed)
RNA 1: B4 RNA 1
RNA 2: B4 RNA 2 with U27G, U28A, A29G, A52C, C53A, A54U
B22: target 2 MT 5'PFS ACG 3'PFS AUA (mixed)
RNA 1: B4 RNA 1
RNA 2: B4 RNA 2 with U27A, U28C, A29G, C53U
B23: target 2 MT 5'PFS GUC 3'PFS CUA (mixed)
RNA 1: B4 RNA 1
RNA 2: B4 RNA 2 with U27G, A29C, A52C, C53U
B24: target 2 MT 5'PFS GGG 3'PFS CGU (mixed)
RNA 1: B4 RNA 1
RNA 2: B4 RNA 2 with U27G, U28G, A29G, A52C, C53G, A54U
B25: target 2 MT 5'PFS GCA 3'PFS CUA (mixed)
RNA 1: B4 RNA 1
RNA 2: B4 RNA 2 with U27G, U28C, A52C, C53U
B26: target 2 MT 5'PFS GGG 3'PFS AGC (mixed)
RNA 1: B4 RNA 1
RNA 2: B4 RNA 2 with U27G, U28G, A29G, C53G, A54C
B27: target 2 MT 5'PFS GCU 3'PFS UAC (mixed)
RNA 1: B4 RNA 1
RNA 2: B4 RNA 2 with U27G, U28C, A29U, A52U, C53A, A54C
B28: target 2 MT 5'PFS GGG 3'PFS AGA (mixed)
RNA 1: B4 RNA 1
RNA 2: B4 RNA 2 with U27G, U28G, A29G, C53G
B29: target 2 MT 5'PFS GAG 3'PFS CAG (mixed)
RNA 1: B4 RNA 1
RNA 2: B4 RNA 2 with U27G, U28A, A29G, A52C, C53A, A54G
B30: target 2 MT 5'PFS UUA 3'PFS ACG (mixed)
RNA 1: B4 RNA 1
RNA 2: B4 RNA 2 with A54G
B31: target 2 MT 5'PFS CAC 3'PFS UUA (mixed)
RNA 1: B4 RNA 1
RNA 2: B4 RNA 2 with U27C, U28A, A29C, A52U, C53U
B32: target 2 MT 5'PFS GGG 3'PFS AGU (mixed)
RNA 1: B4 RNA 1
RNA 2: B4 RNA 2 with U27G, U28G, A29G, C53G, A54U
B33: target 2 MT 5'PFS GUG 3'PFS AGC (mixed)
RNA 1: B4 RNA 1
RNA 2: B4 RNA 2 with U27G, A29G, C53G, A54C
B34: target 2 MT 5'PFS GCU 3'PFS UAA (mixed)
RNA 1: B4 RNA 1
RNA 2: B4 RNA 2 with U27G, U28C, A29U, A52U, C53A
B35: target 2 MT 5'PFS GGG 3'PFS CGC (mixed)
RNA 1: B4 RNA 1
RNA 2: B4 RNA 2 with U27G, U28G, A29G, A52C, C53G, A54C
B36: target 2 MT 5'PFS UUA 3'PFS ACU (mixed)
RNA 1: B4 RNA 1
RNA 2: B4 RNA 2 with A54U

Changes are numbered by the printed parent chain.

The series addresses T1, EsCas13d, nuclease-dead. As to the kind of experiment: crRNA (strand 1, pre-loaded); Mg2+; 40 mM Tris-HCl pH 7.5, 150 mM NaCl, 6 mM MgCl2, 1 mM DTT, 0.1% Tween-20, 0.2 mg/ml BSA; 25 C; 10 min per concentration, then washed. Particulars: tags: His6-TwinStrep-SUMO cleaved; N-terminal SNAP kept (SNAP-Surface 488); label: 3' end held by stalled T7 RNA polymerase.
Regarding B1, the Kd (commonly a measure of binding affinity in units of concentration) stood at 11.7 ± 1 nM.
In the case of B2 it was 23.5 ± 2.9 nM; in that of B3, 82 ± 11 nM; in that of B4, 37 ± 7 nM.
B5 returned a Kd of 23 ± 7 nM.
B6 had a Kd of 7.5 ± 0.5 nM. Against the preceding molecule, the Kd is about 3.1-fold lower.
In turn, B7 showed a Kd of 5.6 ± 1 nM. The Kd values of the last two molecules are within 1.5-fold of each other.
In the case of B8, the Kd was found to be 4.8 ± 0.5 nM.
In the case of B9 it was 8.2 ± 0.7 nM; in that of B10, 8.5 ± 0.5 nM; in that of B11, 12.3 ± 1.1 nM.
As to B12, the Kd amounted to 5.1 ± 0.5 nM. This Kd is about 2.4-fold lower than that of the molecule before.
Molecule B13 registered a Kd of 12.5 ± 2 nM.
B14 came in with a Kd of 15.5 ± 2.4 nM.
In the case of B15 it was 10.3 ± 1.8 nM.
In the case of B16 it was 5.2 ± 1.2 nM; in that of B17, 4.9 ± 0.7 nM; in that of B18, 11 ± 0.7 nM.
With B19, the affinity, expressed as Kd, was 8.3 ± 0.8 nM.
B20 returned a Kd of 2.8 ± 0.5 nM. Compared with the last molecule, the Kd is about 3-fold lower.
Regarding B21, binding was characterised by a dissociation constant (Kd) of 5.14 ± 0.34 nM.
As to B22, the Kd stood at 11 ± 4 nM. This Kd lies about 2.1-fold higher than the previous one.
In the case of B23 it was 11.8 ± 1.8 nM; in that of B24, 9.8 ± 0.7 nM; in that of B25, 10.9 ± 2.5 nM.
Turning to B26, binding was put at a Kd of 6.5 ± 0.4 nM. This Kd is about 1.7-fold lower than that of the molecule before.
In the case of B27 it was 13.2 ± 2.4 nM.
Molecule B28 came in with a Kd of 5.5 ± 0.5 nM.
The molecule B29 yielded a Kd of 5.31 ± 0.29 nM.
On to B30, for which the Kd was determined as 81 ± 19 nM.
On to B31, for which the Kd was 4.4 ± 0.8 nM.
Under B32 stands 6.2 ± 0.5 nM; under B33, 7.2 ± 0.4 nM; under B34, 7.8 ± 1.8 nM.
As for B35, the affinity, expressed as Kd, was 10.5 ± 0.9 nM.
The molecule B36 yielded a dissociation constant (Kd) of 32 ± 4 nM.
